Usually koff stands for the rate constant with which the complex falls apart. Read a low koff as a long-lived complex. As a reminder, the kon is a measure of how fast the partners come together. A higher kon goes with faster complex formation.

The target of one assay is T1, PTP99A D1D2 (Drosophila melanogaster, UniProt P35832).
T1 sequence (P35832 450-1050): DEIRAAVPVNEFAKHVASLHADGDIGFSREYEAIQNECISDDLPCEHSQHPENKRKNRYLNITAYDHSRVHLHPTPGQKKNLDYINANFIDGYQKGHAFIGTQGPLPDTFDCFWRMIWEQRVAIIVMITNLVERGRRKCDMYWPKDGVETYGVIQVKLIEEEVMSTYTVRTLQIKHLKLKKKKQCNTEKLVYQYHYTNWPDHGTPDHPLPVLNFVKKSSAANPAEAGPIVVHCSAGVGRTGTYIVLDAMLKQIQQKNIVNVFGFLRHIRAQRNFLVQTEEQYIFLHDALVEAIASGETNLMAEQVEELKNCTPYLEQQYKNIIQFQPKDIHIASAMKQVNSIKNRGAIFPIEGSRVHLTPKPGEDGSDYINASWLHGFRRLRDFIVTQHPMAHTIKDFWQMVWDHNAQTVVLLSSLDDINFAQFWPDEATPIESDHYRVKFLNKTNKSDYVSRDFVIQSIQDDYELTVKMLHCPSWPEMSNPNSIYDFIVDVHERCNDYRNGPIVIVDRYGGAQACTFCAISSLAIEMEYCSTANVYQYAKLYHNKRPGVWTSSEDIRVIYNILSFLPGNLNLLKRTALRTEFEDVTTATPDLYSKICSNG
Put plainly: PNC binding by fluorescence quenching, PTP99A D1D2. Conditions: 5.0 µM protein, 25 mM citrate pH 6.5; fluorescence quenching 350 nm; independent two site model; read-out: Kd1. How it is done:
(§1) 5.0 µM of recombinant protein was titrated with increasing concentrations of PNC (Sigma-Aldrich) in 25 mM citrate buffer pH 6.5, 100 mM NaCl and 2 mM DTT. The closing of the WPD loop leads to the quenching of the intrinsic tryptophan fluorescence. Fluorescence quenching was monitored at 350 nm (emission maximum) for recombinant PTP domains and the dissociation constants were calculated by fitting the data to a hyperbolic equation of ligand binding using the nonlinear regression modules of Sigma Plot software (Systat Software Inc.).
(§2) To evaluate the differences in the phosphotyrosine binding pockets of the two domains of DLAR and PTP99A, a small molecule probe para-Nitrocatecholsulfate (2-hydroxy-5-nitrophenyl sulfate; PNC) was used. PNC acts as a small molecule competitive inhibitor of the PTPs as it mimics the phosphotyrosine residue. PNC binding was evaluated by monitoring the fluorescence quenching of the tryptophan residues in the WPD loop. […] PNC binding to the DLAR D1D2 construct fitted well to the independent ligand binding model for two non-interacting sites.

The next assay deals with T2, DLAR D1D2 (Drosophila melanogaster, UniProt P16621).
T2 construct: DLAR 1448-2029; His tag (pET-15b or pET-22b); made in house; host or cells: E. coli BL21(DE3)
T2 sequence (P16621 1448-2029): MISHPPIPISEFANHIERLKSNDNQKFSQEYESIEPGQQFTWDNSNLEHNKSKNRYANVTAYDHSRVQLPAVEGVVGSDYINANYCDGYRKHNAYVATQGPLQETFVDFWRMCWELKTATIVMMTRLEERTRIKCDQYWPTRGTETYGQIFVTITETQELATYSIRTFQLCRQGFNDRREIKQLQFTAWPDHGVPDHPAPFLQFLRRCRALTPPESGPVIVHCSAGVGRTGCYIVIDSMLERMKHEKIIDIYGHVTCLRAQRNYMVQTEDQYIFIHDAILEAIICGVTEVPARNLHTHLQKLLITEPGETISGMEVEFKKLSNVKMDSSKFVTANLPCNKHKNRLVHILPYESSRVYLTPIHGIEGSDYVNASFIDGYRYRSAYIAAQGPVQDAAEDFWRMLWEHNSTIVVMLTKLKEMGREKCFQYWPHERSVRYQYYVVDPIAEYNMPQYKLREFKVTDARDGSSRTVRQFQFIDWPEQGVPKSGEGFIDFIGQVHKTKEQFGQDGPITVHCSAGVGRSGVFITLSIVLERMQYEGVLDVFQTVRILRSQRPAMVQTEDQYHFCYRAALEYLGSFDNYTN
Put plainly: PNC binding by fluorescence quenching, DLAR D1D2. The settings on record: 5.0 µM protein, 25 mM citrate pH 6.5, fluorescence quenching 350 nm, independent two site model. How it is done: as §1, §2

In another assay the target is T3, DLAR D2 (Drosophila melanogaster, UniProt P16621).
T3 construct: DLAR 1728-2029; His tag (pET-15b or pET-22b); made in house; host or cells: E. coli BL21(DE3)
T3 sequence (P16621 1728-2029): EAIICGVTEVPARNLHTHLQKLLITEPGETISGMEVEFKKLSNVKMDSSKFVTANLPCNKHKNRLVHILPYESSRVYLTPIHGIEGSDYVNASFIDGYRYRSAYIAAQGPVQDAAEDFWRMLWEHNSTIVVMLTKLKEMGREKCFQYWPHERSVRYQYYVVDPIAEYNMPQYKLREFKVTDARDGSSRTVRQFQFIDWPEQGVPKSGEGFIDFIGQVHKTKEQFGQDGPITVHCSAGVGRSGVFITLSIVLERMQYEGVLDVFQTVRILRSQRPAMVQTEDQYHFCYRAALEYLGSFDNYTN
In words: PNC binding by fluorescence quenching, DLAR D2. Conditions: 5.0 µM protein, 25 mM citrate pH 6.5; fluorescence quenching 350 nm; single site model. How it is done: as §1, §2

For another assay, the target named is T4, PTP99A D1 (Drosophila melanogaster, UniProt P35832).
T4 sequence (P35832 450-756): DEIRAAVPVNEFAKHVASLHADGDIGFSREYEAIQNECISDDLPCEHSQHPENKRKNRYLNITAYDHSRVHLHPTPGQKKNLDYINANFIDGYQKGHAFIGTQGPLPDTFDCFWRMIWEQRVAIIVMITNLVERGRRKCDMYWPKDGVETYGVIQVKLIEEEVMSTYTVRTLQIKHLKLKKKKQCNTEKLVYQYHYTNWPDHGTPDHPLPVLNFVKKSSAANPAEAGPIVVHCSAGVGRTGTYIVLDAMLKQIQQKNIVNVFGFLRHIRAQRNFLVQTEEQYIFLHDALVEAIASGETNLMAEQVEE
Put plainly: PNC binding by fluorescence quenching, PTP99A D1. Details: PTP99A 450-756; His tag (pET-15b or pET-22b); made in house; host or cells: E. coli BL21(DE3). How it is done:
as §1, §2

A further assay concerns the target T5, DLAR D1 (Drosophila melanogaster, UniProt P16621).
T5 construct: DLAR 1448-1746; His tag (pET-15b or pET-22b); made in house; host or cells: E. coli BL21(DE3)
T5 sequence (P16621 1448-1746): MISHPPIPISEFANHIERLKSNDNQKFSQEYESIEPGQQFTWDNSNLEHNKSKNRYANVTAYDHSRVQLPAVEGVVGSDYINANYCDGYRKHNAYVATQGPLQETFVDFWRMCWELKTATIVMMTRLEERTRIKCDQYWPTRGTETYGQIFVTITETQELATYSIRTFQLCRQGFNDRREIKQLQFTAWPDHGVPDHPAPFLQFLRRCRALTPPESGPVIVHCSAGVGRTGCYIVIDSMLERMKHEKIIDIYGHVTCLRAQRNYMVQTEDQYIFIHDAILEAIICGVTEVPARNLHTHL
Put plainly: PNC binding by fluorescence quenching, DLAR D1. How it is done:
as §1, §2

The next assay deals with T6, PTP99A D2 (Drosophila melanogaster, UniProt P35832).
T6 sequence (P35832 740-1050): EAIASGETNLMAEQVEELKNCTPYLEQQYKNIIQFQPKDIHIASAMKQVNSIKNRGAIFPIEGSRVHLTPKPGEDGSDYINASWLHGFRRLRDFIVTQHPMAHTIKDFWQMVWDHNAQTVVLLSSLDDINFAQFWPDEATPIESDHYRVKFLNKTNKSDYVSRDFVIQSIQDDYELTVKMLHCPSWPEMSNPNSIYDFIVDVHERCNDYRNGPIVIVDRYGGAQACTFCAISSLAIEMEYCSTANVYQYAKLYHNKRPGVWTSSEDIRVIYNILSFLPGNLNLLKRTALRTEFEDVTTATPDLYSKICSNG
Put plainly: PNC binding by fluorescence quenching, PTP99A D2. How it is done: as §1, §2

Assay [1] addresses DLAR D1D2HSS (Cys to Ser mutation in the D2 domain) (Drosophila melanogaster). Put plainly: SPR; Biacore-2000; DLAR PTP domains immobilised on CM5 chips by amine coupling; peptides as analyte at 50-700 µM; 25°C; 10 mM HEPES pH 8.0, 150 mM NaCl, 10 mM DTT, 3 mM EDTA; 5 µL/min; two independent sites fit for the double domain constructs, single-site fit for DLAR D1 and DLAR D2. A general note: In SPR one partner is held on a chip, and binding of the other changes the refractive index at the surface.

Assay [2] concerns the target DLAR D1HSS D2 (Cys to Ser mutation in the D1 domain) (Drosophila melanogaster). The description is as above.
Assay [3] has as its target DLAR D2 (membrane-distal PTP domain of DLAR) (Drosophila melanogaster). The assay is described as above.
Assay [4] addresses DLAR D1 (membrane-proximal PTP domain of DLAR) (Drosophila melanogaster). Described as above.
Assay [5] concerns the target DLAR D1D2 (tandem PTP domains of Drosophila Leukocyte antigen Related) (Drosophila melanogaster). Described as above.
The mark [6] stands for this setting: 5.0 µM protein, 25 mM citrate pH 6.5, fluorescence quenching 350 nm, single site model.

Structures can show the parent of a compound that is named as a salt. Where two headings read alike, the source gives them in different places. Square brackets hold non-standard residues; d marks the D form. Ends that are not written are not given here. pY = N[C@@H](Cc1ccc(OP(=O)(O)O)cc1)C(=O)O

Take `O=[N+]([O-])c1ccc(O)c(OS(=O)(=O)O)c1` [PNC, 2-hydroxy-5-nitrophenyl sulfate]: the Kd on PTP99A D1D2 amounted to 94.8 µM; at DLAR D1D2 (read-out: Kd1) it was 160 µM; on DLAR D1D2 (read-out: Kd2) it was 173 µM; at DLAR D2, 214 µM; at PTP99A D1 (setting [6]), 153 µM; on DLAR D1 (5.0 µM protein, 25 mM citrate buffer pH 6.5, 100 mM NaCl, 2 mM DTT, tryptophan fluorescence quenching 350 nm, single site model), 235 µM. The Kd on PTP99A D2 (setting [6]) came out at 716 µM. The “relative PNC binding” value on PTP99A D1 (D1 domain of PTP99A alone, fluorescence quenching) is “four times more favorable”; on DLAR D1 (two PTP domains of DLAR (D1 and D2) compared, fluorescence quenching), “comparable affinities”; on PTP99A D2 (D2 domain of PTP99A compared to the other PTP domains, fluorescence quenching) it was “much more poorly”.

In the case of TAEPD[pY]GALYE [Cuticle Peptide TAEPD(pY)GALYE], in assay [1], the KD, first binding site was determined as 296 µM; the KD, second binding site was found to be 9.43 µM; the ka, first binding site stood at 51.7 M⁻¹ s⁻¹; the ka, second binding site worked out at 1.37 M⁻¹ s⁻¹. Further, in assay [1], the kd, first binding site turned out to be 0.0153 s⁻¹ and the kd, second binding site was 1.3e-05 s⁻¹. In assay [2], this molecule had a KD, first binding site of 87.5 µM; a KD, second binding site of 1.87 µM; a ka, first binding site of 74.7 M⁻¹ s⁻¹; a ka, second binding site of 28800 M⁻¹ s⁻¹. In [2], this molecule gave a kd, first binding site of 0.00654 s⁻¹ and a kd, second binding site of 0.054 s⁻¹. Besides, in assay [3], the Kd amounted to 104 µM, the off-rate constant (koff) was found to be 0.00552 s⁻¹ and the on-rate constant (kon) was found to be 52.8 M⁻¹ s⁻¹. Besides, in assay [4], the Kd worked out at 94.6 µM, the koff is 0.00176 s⁻¹ and the kon was 18.6 M⁻¹ s⁻¹. Besides, in [5], the KD, first binding site was 313 µM; the KD, second binding site was determined as 2.02 µM; the ka, first binding site is 32.6 M⁻¹ s⁻¹; the ka, second binding site turned out to be 16500 M⁻¹ s⁻¹. Moreover, in [5], the kd, first binding site was 0.0102 s⁻¹ and the kd, second binding site was found to be 0.0333 s⁻¹.

Source of the values: publication PMC3172300, “Modulation of Catalytic Activity in Multi-Domain Protein Tyrosine Phosphatases” (PLoS ONE, 2011).
